Results: US11433099B2, “Immunotherapy with B*08 restricted peptides and combination of peptides against cancers and related methods” (Immatics Biotechnologies GmbH, priority 2018, dated 2022)

Each substance was assayed on CD8+ T cells of healthy HLA-B*08 donors (assay: In vitro T-cell priming assay with aAPCs loaded with peptide/MHC complexes and anti-CD28 antibody, pMHC multimer readout). Settings: Table 10A; in vitro immunogenicity, HLA-B*08 pMHC, healthy donors.
Type: cell-based, human
Description: In order to obtain information regarding the immunogenicity of the TUMAPs of the present invention, the inventors performed investigations using an in vitro T-cell priming assay based on repeated stimulations of CD8+ T cells with artificial antigen presenting cells (aAPCs) loaded with peptide/MHC complexes and anti-CD28 antibody.
In order to perform in vitro stimulations by artificial antigen presenting cells loaded with peptide-MHC complex (pMHC) and anti-CD28 antibody, the inventors first isolated CD8+ T cells from fresh HLA-B*08 leukapheresis products via positive selection using CD8 microbeads (Miltenyi Biotec, Bergisch-Gladbach, Germany) of healthy donors obtained from the University clinics Mannheim, Germany, after informed consent.
PBMCs and isolated CD8+ lymphocytes were incubated in T-cell medium (TCM) until use consisting of RPMI-Glutamax (Invitrogen, Karlsruhe, Germany) supplemented with 10% heat inactivated human AB serum (PAN-Biotech, Aidenbach, Germany), 100 U/ml Penicillin/100 μg/ml Streptomycin (Cambrex, Cologne, Germany), 1 mM sodium pyruvate (CC Pro, Oberdorla, Germany), 20 μg/ml Gentamycin (Cambrex). 2.5 ng/ml IL-7 (PromoCell, Heidelberg, Germany) and 10 U/ml IL-2 (Novartis Pharma, Nornberg, Germany) were also added to the TCM at this step.
Generation of pMHC/anti-CD28 coated beads, T-cell stimulations and readout was performed in a highly defined in vitro system using four different pMHC molecules per stimulation condition and 8 different pMHC molecules per readout condition.
The purified co-stimulatory mouse IgG2a anti human CD28 Ab 9.3 (Jung et al., 1987) was chemically biotinylated using Sulfo-N-hydroxysuccinimidobiotin as recommended by the manufacturer (Perbio, Bonn, Germany). Beads used were 5.6 μm diameter streptavidin coated polystyrene particles (Bangs Laboratories, Illinois, USA).
800.000 beads/200 μl were coated in 96-well plates in the presence of 4×12.5 ng different biotin-pMHC, washed and 600 ng biotin anti-CD28 were added subsequently in a volume of 200 μl. Stimulations were initiated in 96-well plates by co-incubating 1×10^6 CD8+ T cells with 2×10^5 washed coated beads in 200 μl TCM supplemented with 5 ng/ml IL-12 (PromoCell) for 3 days at 37° C. Half of the medium was then exchanged by fresh TCM supplemented with 80 U/ml IL-2 and incubating was continued for 4 days at 37° C. This stimulation cycle was performed for a total of three times. For the pMHC multimer readout using 8 different pMHC molecules per condition, a two-dimensional combinatorial coding approach was used as previously described (Andersen et al., 2012) with minor modifications encompassing coupling to 5 different fluorochromes. Finally, multimeric analyses were performed by staining the cells with Live/dead near IR dye (Invitrogen, Karlsruhe, Germany), CD8-FITC antibody clone SK1 (BD, Heidelberg, Germany) and fluorescent pMHC multimers. For analysis, a BD LSRII SORP cytometer equipped with appropriate lasers and filters was used. Peptide specific cells were calculated as percentage of total CD8+ cells. Evaluation of multimeric analysis was done using the FlowJo software (Tree Star, Oregon, USA). In vitro priming of specific multimer+CD8+ lymphocytes was detected by comparing to negative control stimulations.

| Substance | Wells positive [%] |
| --- | --- |
| 278 (RAQLKLVAL; listed as Homo sapiens) [compound 278] | + (<20% = +) |
| 283 (MAQFKEISL; listed as Homo sapiens) [compound 283] | ++++ (>=70% = ++++) |
| 284 (ELKKKEYEEL; listed as Homo sapiens) [compound 284] | + (<20% = +) |
| 285 (EAMLRNKEL; listed as Homo sapiens) [compound 285] | + (<20% = +) |
| 286 (ILLPRTVSL; listed as Homo sapiens) [compound 286] | + (<20% = +) |

Same assay, conditions: in vitro immunogenicity, HLA class I peptides, Table 10B

| Substance | Wells positive [%] |
| --- | --- |
| 1 (ALKLKVAEL; listed as Homo sapiens) [compound 1] | ++ (20%-49% = ++) |
| 3 (SIQSRYISM; listed as Homo sapiens) [compound 3] | ++ (20%-49% = ++) |
| 5 (STMPKILAL; listed as Homo sapiens) [compound 5] | + (<20% = +) |
| 8 (FVRPKLVTI; listed as Homo sapiens) [compound 8] | + (<20% = +) |
| 9 (LLKGKPRAL; listed as Homo sapiens) [compound 9] | + (<20% = +) |
| 10 (MGKFKQCF; listed as Homo sapiens) [compound 10] | ++++ (>=70% = ++++) |
| 11 (MAPLKMLAL; listed as Homo sapiens) [compound 11] | +++ (50%-69%= +++) |
| 13 (EPFTRPVL; listed as Homo sapiens) [compound 13] | + (<20% = +) |

Each substance was assayed against HLA-B*08:01 (Homo sapiens, UniProt P01889) (assay: MHC binding assay (UV-ligand exchange, beta2m ELISA)). Settings: MHC class I binding score; binding to HLA-B*08:01 ranged by peptide exchange yield (UV-ligand exchange, β2m ELISA).
Method in brief: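 Peptide–HLA complexes generated by UV-ligand exchange of a UV-cleavable peptide for the test peptide; exchange yield read by β2m ELISA on streptavidin capture (samples diluted 100-fold, 1 h 37 °C), HRP anti-β2m, TMB, A450. Quantified against refolded HLA-A*02:01/MLA-001 monomer standards (15-500 ng/ml).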

| Substance | Peptide exchange |
| --- | --- |
| 1 (ALKLKVAEL; listed as Homo sapiens) [compound 1] | ++ (20% = ++) |
| 3 (SIQSRYISM; listed as Homo sapiens) [compound 3] | +++ (50% = +++) |
| 5 (STMPKILAL; listed as Homo sapiens) [compound 5] | +++ (50% = +++) |
| 8 (FVRPKLVTI; listed as Homo sapiens) [compound 8] | +++ (50% = +++) |
| 9 (LLKGKPRAL; listed as Homo sapiens) [compound 9] | ++ (20% = ++) |
| 10 (MGKFKQCF; listed as Homo sapiens) [compound 10] | +++ (50% = +++) |
| 11 (MAPLKMLAL; listed as Homo sapiens) [compound 11] | +++ (50% = +++) |
| 13 (EPFTRPVL; listed as Homo sapiens) [compound 13] | ++ (20% = ++) |
| 205 (YMQYGFLSM; listed as Homo sapiens) [compound 205] | ++ (20% = ++) |
| 206 (MEFPNKFNTL; listed as Homo sapiens) [compound 206] | ++ (20% = ++) |
| 207 (LRKRKSPE; listed as Homo sapiens) [compound 207] | ++ (20% = ++) |
| 208 (LPPPQPLSL; listed as Homo sapiens) [compound 208] | ++ (20% = ++) |
| 209 (SRFGKFVQL; listed as Homo sapiens) [compound 209] | ++ (20% = ++) |
| 210 (QPNTHQLL; listed as Homo sapiens) [compound 210] | ++ (20% = ++) |
| 211 (DVISKGVSL; listed as Homo sapiens) [compound 211] | ++ (20% = ++) |
| 212 (EEYKFPSL; listed as Homo sapiens) [compound 212] | ++ (20% = ++) |
| 213 (FPSLFINQF; listed as Homo sapiens) [compound 213] | ++ (20% = ++) |
| 214 (DAPRHRLL; listed as Homo sapiens) [compound 214] | ++ (20% = ++) |
| 215 (NPLIEIISI; listed as Homo sapiens) [compound 215] | ++ (20% = ++) |
| 216 (EARPPSPAV; listed as Homo sapiens) [compound 216] | ++ (20% = ++) |
| 217 (ETIKGHSVRL; listed as Homo sapiens) [compound 217] | ++ (20% = ++) |

Second part, the substance after the results:

| Peptide exchange | Substance |
| --- | --- |
| +++ (50% = +++) | 218 (DNHPRLVTL; listed as Homo sapiens) [compound 218] |
| ++ (20% = ++) | 219 (VRNPKILIL; listed as Homo sapiens) [compound 219] |
| ++ (20% = ++) | 220 (LAVRHLSL; listed as Homo sapiens) [compound 220] |
| +++ (50% = +++) | 221 (SLKEELLSL; listed as Homo sapiens) [compound 221] |
| ++ (20% = ++) | 222 (AQKAELIAL; listed as Homo sapiens) [compound 222] |
| ++ (20% = ++) | 223 (DVSARKLRV; listed as Homo sapiens) [compound 223] |
| ++ (20% = ++) | 224 (LPYPPQKVV; listed as Homo sapiens) [compound 224] |
| +++ (50% = +++) | 225 (MPKRAHWGA; listed as Homo sapiens) [compound 225] |
| +++ (50% = +++) | 226 (DIYEVAVSL; listed as Homo sapiens) [compound 226] |
| ++ (20% = ++) | 227 (SRFPGMSVL; listed as Homo sapiens) [compound 227] |
| +++ (50% = +++) | 228 (TLRAYVLAL; listed as Homo sapiens) [compound 228] |
| ++ (20% = ++) | 229 (DTHTNTYYL; listed as Homo sapiens) [compound 229] |
| ++ (20% = ++) | 230 (DVYFHHVL; listed as Homo sapiens) [compound 230] |
| ++ (20% = ++) | 231 (GEKLLRPSL; listed as Homo sapiens) [compound 231] |
| ++ (20% = ++) | 232 (KLYIHRVTL; listed as Homo sapiens) [compound 232] |
| ++ (20% = ++) | 233 (DVKLVFVM; listed as Homo sapiens) [compound 233] |
| ++ (20% = ++) | 234 (VFRVGISF; listed as Homo sapiens) [compound 234] |

| Peptide exchange | Substance |
| --- | --- |
| +++ (50% = +++) | 235 (SPNSLVTIL; listed as Homo sapiens) [compound 235] |
| ++ (20% = ++) | 236 (STLKKSLEI; listed as Homo sapiens) [compound 236] |
| +++ (50% = +++) | 237 (LPLDSRYVTL; listed as Homo sapiens) [compound 237] |
| +++ (50% = +++) | 238 (IPLAIARL; listed as Homo sapiens) [compound 238] |
| ++ (20% = ++) | 239 (SEPVMRVTL; listed as Homo sapiens) [compound 239] |
| ++ (20% = ++) | 240 (KVIDRKVEL; listed as Homo sapiens) [compound 240] |
| ++ (20% = ++) | 241 (NAYEAPSI; listed as Homo sapiens) [compound 241] |
| ++ (20% = ++) | 242 (KPQSLQLVL; listed as Homo sapiens) [compound 242] |
| +++ (50% = +++) | 243 (EGVPPGTVL; listed as Homo sapiens) [compound 243] |
| ++ (20% = ++) | 244 (HALPPYITVL; listed as Homo sapiens) [compound 244] |
| ++ (20% = ++) | 245 (GPRGPSSGHPL; listed as Homo sapiens) [compound 245] |
| ++ (20% = ++) | 246 (RLLQKSKEL; listed as Homo sapiens) [compound 246] |
| ++ (20% = ++) | 247 (TPEPSVHAL; listed as Homo sapiens) [compound 247] |
| ++ (20% = ++) | 248 (SEVNKHETAL; listed as Homo sapiens) [compound 248] |
| ++ (20% = ++) | 249 (QQIDRVVEV; listed as Homo sapiens) [compound 249] |
| ++ (20% = ++) | 250 (AARAPPQAL; listed as Homo sapiens) [compound 250] |
| ++ (20% = ++) | 251 (DAAAFFKSV; listed as Homo sapiens) [compound 251] |
